Data from patent US20090149339A1 (published 2009).
Ends that are not written are not given here. * marks the point of attachment. Biotin = O=C1N[C@H]2[C@H](CS[C@H]2CCCCC(=O)*)N1

How the values were obtained:
Assay in all cases: A/G assays
[1] = biological target: T1, GST-41.8 kD PDZ domain fusion protein (hypothetical 41.8 kD protein AA4-85; PDZ domain 1 of 1) (UniProt P08515 1-218 = GST)
T1 construct: also called hypoth

[2] = biological target: T2, GST-TAX2 PDZ domain fusion protein (human tax interaction protein 2 AA54-140; PDZ domain 1 of 1) (human, UniProt P08515 1-218 = GST)
T2 construct: also called TX 2

[3] = biological target: GST-MINT3 PDZ domain fusion protein (human MINT3 AA11-52; PDZ domain 1 of 1) (human, UniProt P08515 1-218 = GST)
[4] = biological target: GST-PSD95 PDZ domain fusion protein (human post-synaptic density protein 95 AA387-724; PDZ domains 1-3 of 3) (human, UniProt P08515 1-218 = GST)
[5] = biological target: T3, GST-TAX43 PDZ domain fusion protein (human tax interaction protein 43 AA15-85; PDZ domain 1 of 1) (human, UniProt P08515 1-218 = GST)
T3 construct: also called TX 43

[6] = biological target: GST-LIM PDZ domain fusion protein (Human LIM protein AA29-112; PDZ domain 1 of 1) (human, UniProt P08515 1-218 = GST)
[7] = biological target: GST-NOS1 PDZ domain fusion protein (human neuronal nitric oxide synthase; PDZ domain 1 of 1) (human, UniProt P08515 1-218 = GST)
[8] = biological target: T4, GST-RGS12 PDZ domain fusion protein (human regulator of G-protein signalling 12 AA35-103; PDZ domain 1 of 1) (human, UniProt P08515 1-218 = GST)
T4 construct: also called RSG12

[9] = biological target: T5, GST-TAX40 PDZ domain fusion protein (human tax interaction protein 40 AA35-137; PDZ domain 1 of 1) (human, UniProt P08515 1-218 = GST)
T5 construct: also called TX 40

[10] = biological target: GST-PTN-4 PDZ domain fusion protein (protein-tyrosine phosphatase meg1 AA774-862; PDZ domain 1 of 1) (UniProt P08515 1-218 = GST)
[11] = biological target: GST-MPP1 PDZ domain fusion protein (55 Kd erythrocyte membrane protein AA101-186; PDZ domain 1 of 1) (UniProt P08515 1-218 = GST)
[12] = biological target: T6, GST-CASK PDZ domain fusion protein (CASK AA495-584; PDZ domain 1 of 1) (mouse, UniProt P08515 1-218 = GST)
T6 construct: also called mCASK

[13] = biological target: T7, GST-KIAA0303 PDZ domain fusion protein (KIAA0303 AA652-742; PDZ domain 1 of 1) (UniProt P08515 1-218 = GST)
T7 construct: also called K303

[14] = biological target: T8, GST-KIAA0559 PDZ domain fusion protein (KIAA0559 AA766-870; PDZ1 of 1) (UniProt P08515 1-218 = GST)
T8 construct: also called K559

[15] = biological target: GST-prIL16 PDZ domain fusion protein (putative interleukin 16 precursor AA170-383; PDZ domains 1-2 of 2) (UniProt P08515 1-218 = GST)
[16] = biological target: GST-AF6 PDZ domain fusion protein (af-6 protein AA985-1077; PDZ domain 1 of 1) (UniProt P08515 1-218 = GST)
[17] = biological target: T9, GST-SYN1a PDZ domain fusion protein (alpha1-syntrophin AA96-189; PDZ domain 1 of 1) (UniProt P08515 1-218 = GST)
T9 construct: also called SYN 1 alpha; SYNTR 1 alpha

[18] = biological target: T10, GST-NeDLG PDZ domain fusion protein (presynaptic protein sao102, neuroendocrine-dlg; PDZ domains 1-2 of 3) (UniProt P08515 1-218 = GST)
T10 construct: also called NeDLG1

[19] = biological target: T11, GST-TAX33 PDZ domain fusion protein (tax interaction protein 33 AA73-162; PDZ domain 1 of 1) (UniProt P08515 1-218 = GST)
T11 construct: also called TX33

[20] = biological target: T12, GST-MPP2 PDZ domain fusion protein (maguk p55 subfamily member 2 (DLG2) AA185-273; PDZ domain 1 of 1) (UniProt P08515 1-218 = GST)
T12 construct: also called MMP2

[21] = biological target: T13, GST-KIAA0316 PDZ domain fusion protein (KIAA0316 AA197-284; PDZ domain 1 of 1) (UniProt P08515 1-218 = GST)
T13 construct: also called K316

[22] = biological target: GST-LIMK2 PDZ domain fusion protein (human LIM domain kinase 2 AA185-275; PDZ domain 1 of 1) (human, UniProt P08515 1-218 = GST)
[23] = biological target: T14, GST-CBP PDZ domain fusion protein (Cytohesin binding protein HE AA85-175; PDZ domain 1 of 1) (UniProt P08515 1-218 = GST)
T14 construct: also called Prot

[24] = biological target: GST-DVL1 PDZ domain fusion protein (human dishevelled segment polarity protein homolog AA248-340); PDZ domain … (human, UniProt P08515 1-218 = GST)
[25] = biological target: GST-TIAM1 PDZ domain fusion protein (T-lymphoma invasion and metastasis inducing protein 1 AA1001-1088); PDZ 1 … (UniProt P08515 1-218 = GST)

Measured: binding result

T7 sequence (P08515 1-218, tags or fused parts left off): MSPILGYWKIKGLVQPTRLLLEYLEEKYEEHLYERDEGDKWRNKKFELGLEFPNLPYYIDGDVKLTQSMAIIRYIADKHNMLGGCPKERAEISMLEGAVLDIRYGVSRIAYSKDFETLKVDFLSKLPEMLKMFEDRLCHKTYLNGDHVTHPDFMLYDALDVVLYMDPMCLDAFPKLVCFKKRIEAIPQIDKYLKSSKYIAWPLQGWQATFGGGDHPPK
T2 sequence (P08515 1-218, tags or fused parts left off): as above
T11 sequence (P08515 1-218, tags or fused parts left off): as above
GST-TIAM1 PDZ domain fusion protein (T-lymphoma invasion and metastasis inducing protein 1 AA1001-1088); PDZ 1 …, sequence (P08515 1-218, tags or fused parts left off): as above
GST-PTN-4 PDZ domain fusion protein (protein-tyrosine phosphatase meg1 AA774-862; PDZ domain 1 of 1), sequence (P08515 1-218, tags or fused parts left off): as above
GST-DVL1 PDZ domain fusion protein (human dishevelled segment polarity protein homolog AA248-340); PDZ domain …, sequence (P08515 1-218, tags or fused parts left off): as above
GST-MINT3 PDZ domain fusion protein (human MINT3 AA11-52; PDZ domain 1 of 1), sequence (P08515 1-218, tags or fused parts left off): as above
T10 sequence (P08515 1-218, tags or fused parts left off): as above
T8 sequence (P08515 1-218, tags or fused parts left off): as above
T1 sequence (P08515 1-218, tags or fused parts left off): as above
GST-LIMK2 PDZ domain fusion protein (human LIM domain kinase 2 AA185-275; PDZ domain 1 of 1), sequence (P08515 1-218, tags or fused parts left off): as above
T3 sequence (P08515 1-218, tags or fused parts left off): as above
GST-NOS1 PDZ domain fusion protein (human neuronal nitric oxide synthase; PDZ domain 1 of 1), sequence (P08515 1-218, tags or fused parts left off): as above
T9 sequence (P08515 1-218, tags or fused parts left off): as above
T4 sequence (P08515 1-218, tags or fused parts left off): as above
GST-prIL16 PDZ domain fusion protein (putative interleukin 16 precursor AA170-383; PDZ domains 1-2 of 2), sequence (P08515 1-218, tags or fused parts left off): as above
T12 sequence (P08515 1-218, tags or fused parts left off): as above
GST-AF6 PDZ domain fusion protein (af-6 protein AA985-1077; PDZ domain 1 of 1), sequence (P08515 1-218, tags or fused parts left off): as above
GST-LIM PDZ domain fusion protein (Human LIM protein AA29-112; PDZ domain 1 of 1), sequence (P08515 1-218, tags or fused parts left off): as above
GST-MPP1 PDZ domain fusion protein (55 Kd erythrocyte membrane protein AA101-186; PDZ domain 1 of 1), sequence (P08515 1-218, tags or fused parts left off): as above
T5 sequence (P08515 1-218, tags or fused parts left off): as above

Biotin-DLGNMEENKKLEENNHKTEA [CD166 (CD6L) C-terminal PL peptide AA20L, biotinylated]
no binding: all assays above

Biotin-ENLAPVTTFGKTNGYIA [CD148 (DEP-1) C-terminal PL peptide AA19L (ends GYIA), biotinylated]
no binding: all assays above
